This series concerns the molecule itself. In words: SAXS.

This is an account of results in article PMC4126800 (Nature, 2014).

B1: Human CD81 large extracellular loop (CD81 LEL, residues 112-202) (domain or fragment)
chain: GFVNKDQIAKDVKQFYDQALQQAVVDDDANNAKAVVKTFHETLDCCGSSTLTALTTSVLKNNLCPSGSNIISNLFKEDCHQKIDDLFSGKL
In the case of B1, the “stoichiometry N” value is 2.

In general, stoichiometry N refers to a count of units in the complex or per binding partner.
